Patent US10006080B2, “High-selectivity contact activation inhibitor based on infestin-4” (OBSCHESTVO S OGRANICHENNOY OTVETSTVENNOSTYU …, priority 2013, dated 2018)

Columns and labels:
fXIa = molecular target: T1, fXIa (Homo sapiens, UniProt P03951); assay: Chromogenic test of protease inhibition in buffer, fXIa (substrate S-2366); format: biochemical; settings: buffer solution, summary of Table 2
T1 construct: factor XI into its active form, factor XIa (fXIa)
Method: In order to assess selectivity of the fXIIa inhibition by the polypeptide comprising the sequence of the infestin-4 mutant MutB, its inhibitory activity in buffer solution against the purified coagulation factors was determined. The polypeptide's activity was compared with the known fXIIa inhibitors: CTI, infestin-4, infestin-4-based mutant Mut15, LCTI-III. […] The standard deviation amounted to about 50% of the average value; each value was measured by performing 2-3 repeats.
To determine the inhibition activity of such proteins as MutB, CTI, Inf4, Mut15, and LCTI-III as related to different coagulation proteases in a buffer, the chromogenic test was used: the mixture of protease and inhibitor was incubated in the wells of the plate for 15 minutes at 37° C., after which the chromogenic substrate solution was added to the mixture, and the protease activity was measured as the rate of chromogenic product formation at 37° C.
Chromogenic substrates included a p-nitroanilide group cleaved by the corresponding proteases. After cleavage of the p-nitroanilide group from the substrate molecule, the group absorption spectrum changes, and the change of concentration of such product within time can be detected at the light wavelength of 405 nm using a plate spectrophotometer. To build a dependence curve of the protease activity from the inhibitor concentration, different inhibitor concentrations were added into several samples with the same protease concentration. After that, the inhibitor concentration able to decrease the protease activity by 50% (IC50) was determined. The inhibition constant Ki was calculated using the Cheng-Prusoff equation (Ki=IC50/(1+S/KM)), where S is the initial substrate concentration, KM is the Michaelis-Menten constant of the substrate to the protease.
Native infestin-4 and its mutants MutB and Mut15 used here were fusion proteins with thioredoxin I E. coli containing polyhisticline clusters. […]

whole blood = assay: Spontaneous clotting time of whole blood collected without calcium chelator; parameters: species or system human; settings: MutB 10 μM, CTI 5 μM; 22° C., no calcium chelator; 3 healthy donors
Method: We used concentrations of contact activation inhibitors leading to 2.5-fold increase of APTT in normal plasma. Untreated whole blood was collected from 3 healthy donors without adding any anticoagulant, for example, citrate, except for the said contact activation inhibitors. The blood was mixed with the said inhibitors at 22° C. using a rotator, after which the time of clot formation in the blood was measured.
Blood was collected from the median cubital vein of the left hand into a sterile syringe Master UN PE, volume 10 ml, needle 21 G×1½″; 0.8×40 mm (FarmLine, USA). Calcium chelator or other anticoagulants, except contact activation inhibitors MutB or CTI, were not added into plasma. […] The collected blood was poured into a 15 ml tube, mixed by inverting it twice, after which 0.7 ml portions of blood were poured into 1.5 ml polypropylene microcentrifuge tubes MaxyClear Snaplock (Axygen, USA); immediately after, time record using a stopwatch started. Preliminarily, 78 microliters of MutB solution at 100 μM concentration, CTI solution at 50 μM concentration, or buffer solution of 30 mM Hepes pH 7.4 were added into the said tubes. The tubes containing the mixture of whole blood with the said solutions were fixed in the rotator and mixed by inverting them at the rotation speed of 10 rpm. The time of appearance of clots or fibrin filaments in the whole blood during mixing was fixed.

hypercoagulant PFP = assay: Thrombodynamics analyzer T-2, clots far from the activator in hypercoagulant PFP (100 pM fXIa added); format: biochemical, human; settings: MutB 20 μM, CTI 15 μM; for time of appearance of clots far from the activator after activation: hypercoagulant PFP, nearly 5-8 minutes without inhibitor
Method: To assess the influence of the said contact activation inhibitors on appearance, far from the activator, of clots provoked by hypercoagulation, but not by contact activation of the sample by the cuvette walls, we added MutB (20 μM) and CTI (15 μM) into 2 separate samples of hypercoagulant PFP. Hypercoagulant PFP was obtained from normal frozen-thawed PFP by adding 100 pM of fXIa.
The influence of a polypeptide consisting of the sequence of an infestin-4 mutant MutB on the growth of fibrin clots in the samples of hypocoagulant, normal, and hypercoagulant blood plasma was studied using the laboratory diagnostic system «Thrombodynamics analyzer T-2» and the «Diagnostic kit for thrombodynamics investigation in blood plasma» (HemaCore, Moscow, Russia) according to the manual to the «Diagnostic kit for thrombodynamics investigation in blood plasma» (HemaCore, Moscow, Russia). Here, the said polypeptide was preliminarily proteolytically cleaved and chromatographically purified from thioredoxin (Trx). 15 minutes before the assay, the measuring cuvette, insert-activator with immobilized TF, and the reagents were held at 37° C. Standard investigation temperature was of 37° C. 15 minutes before the assay, 120 microliters of plasma were mixed with the investigated substances, MutB or CTI, for comparison, and put into a microtube. After mixing of the plasma with the substances, the tube with the plasma was put into a thermostat at 37° C. for 15 minutes. Immediately before the assay, the plasma was re-calcified: 120 microliters of the mixture of plasma and substances were put into a microtube with Reagent II (lyophilized solution of calcium acetate with an additive), and mixed up to complete Reagent II dilution. Then, 120 microliters of the mixture with Reagent II from the microtube was immediately transferred into the measuring cuvette. After that, the insert-activator was carefully inserted into the cuvette so that the surface with immobilized tissue factor would contact the plasma. Immediately after the contact of the coagulation activator with the blood plasma, the photography of the process of fibrin clot growth in plasma within the cuvette started. The cuvette-activator was a plate with the coagulation activator—tissue factor—immobilized at the low end surface (Fadeeva et al. 2010, Biochemistry (Moscow) 75:827-838). The automatic calculation of the assay results was performed using the software (user manual «Software for the laboratory diagnostic system «Thrombodynamics analyzer T-2», HemaCore, Moscow, Russia).

T1 sequence (P03951 388-625 limits assumed): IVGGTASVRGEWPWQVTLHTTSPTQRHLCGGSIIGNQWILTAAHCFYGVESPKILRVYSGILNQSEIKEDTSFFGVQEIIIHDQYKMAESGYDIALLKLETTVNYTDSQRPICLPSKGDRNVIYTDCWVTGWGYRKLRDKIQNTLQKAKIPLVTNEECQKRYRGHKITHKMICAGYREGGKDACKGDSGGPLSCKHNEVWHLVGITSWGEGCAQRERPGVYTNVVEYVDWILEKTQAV
T1 sequence (P03951 19-387 partner limits assumed): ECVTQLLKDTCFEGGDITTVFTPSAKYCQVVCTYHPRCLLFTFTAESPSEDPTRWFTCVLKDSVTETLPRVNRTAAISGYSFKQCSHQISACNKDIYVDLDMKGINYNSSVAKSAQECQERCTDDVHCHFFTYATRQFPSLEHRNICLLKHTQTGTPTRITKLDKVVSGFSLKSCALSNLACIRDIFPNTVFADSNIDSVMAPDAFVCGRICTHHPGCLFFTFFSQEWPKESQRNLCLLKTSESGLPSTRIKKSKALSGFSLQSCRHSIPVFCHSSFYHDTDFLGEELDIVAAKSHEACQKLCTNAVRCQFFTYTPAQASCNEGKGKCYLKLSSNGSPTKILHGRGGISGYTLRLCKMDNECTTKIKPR

| inhibition of fXIa (in words) (fXIa) | Molecule | increase of the whole blood storage time in the tube (clotting time) (whole blood) | influence on appearance of clots far from the activator in hypercoagulant plasma (hypercoagulant PFP) | time of appearance of clots far from the activator after activation (hypercoagulant PFP) [min] |
| --- | --- | --- | --- | --- |
| do not inhibit | MutB: polypeptide comprising the sequence of infestin-4 mutant MutB (SEQ ID NO: 1), inhibition loop TRNFVA; high-selectivity fXIIa inhibitor (EVRNPCACTRNFVAVCGSDGKTYGNPCMLNCAAQTKVPGLKLVHEGRCQRSNVEQF; Infestin-4 mutant MutB) | two to three-fold | does not influence appearance of clots far from the activator | 5 to 8 |
| inhibits | corn trypsin inhibitor (other, UniProt P01088 29-138, looked up, Isolated from corn; also called CTI) SAGTSCVPGWAIPHNPLPSCRWYVTSRTCGIGPRLPWPELKRRCCRELADIPAYCRCTALSILMDGAIPPGPDAQLEGRLEDLPGCPREVQRGFAATLVTEAECNLATIS | two to three-fold | delays appearance of clots far from the activator | 10 to 15 |
